± gives the uncertainty stated by the source.
Assay: self-splicing fitness, log relative to wild type (ln ratio); higher = more splicing; Tetrahymena group I intron in knt gene, E. coli kanamycin selection, DiMSum; sequences stand for … in CUCUCU…GGAGGGAAAAGUUAUCAGGCAUGCACCUGGUAGCUAGUCUUUAAACCAAUAGAUUGCAUCGGUUUAAAAGGCAAGACCGUCAAAUUGCGGGAAAGGGGUCAACAGCCGUUCAGUACCAAGUCUCAGGGGAAACUUUGAGAUGGCCUUGCAAAGGGUAUGGUAAUAAGCUGACGGACAUGGUCCUAACCACGCAGCCAAGUCCUAAGUCAACAGAUCUUCUGUUGAUAUGGAUGCAGUUCACAGACUAAAUGUCGGUCGGGGAAGAUGUAUUCUUCUCAUAAGAUAUAGUCGGACCUCUCCUUAAUGGGAGCUAGCGGAUGAAGUGAUGCAACACUGGAGCCGCUGGGAACUAAUUUGUAUGCGAAAGUAUAUUGAUUAGUUUUGGAGUACUCGUGGUCG
Outline: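 Fitness was computed with DiMSum as the error-weighted combination of replicate fold changes, kanamycin versus none, each normalised to wild type. The library randomised all eight intron nucleotides of the P1ex region, with the intron placed in the knt kanamycin-resistance gene on pET-22b(+) in E. coli BL21(DE3). Six replicate transformations were grown overnight at 37°C or 30°C on LB agar with or without 25 μg/mL kanamycin, plus 100 μg/mL carbenicillin, 50 μM IPTG and 0.2% rhamnose. Pooled colonies were amplicon-sequenced on an Illumina HiSeq 2500.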

| Sequence | self-splicing fitness (ln) (30 °C) | self-splicing fitness (ln) (37 °C) |
| --- | --- | --- |
| UGAAAGCAAUAUUACGUGAG | -0.356 ± 0.06 | -0.158 ± 0.084 |
| AGCGAGCAAUAUUACGGUAG | – | -1.73 ± 0.22 |
| CGGAAGCAAUAUUACGAUAU | – | -2.82 ± 0.26 |
| GCCAAGCAAUAUUACGAUCU | -1.94 ± 0.13 | -0.903 ± 0.098 |
| AUACAGCAAUAUUACGUCUU | -0.218 ± 0.059 | 0.336 ± 0.074 |
| CAGAAGCAAUAUUACGAUGC | -4.82 ± 0.42 | -2.92 ± 0.35 |
| ACGAAGCAAUAUUACGAUCU | -0.659 ± 0.081 | -0.244 ± 0.082 |
| GAUGAGCAAUAUUACGGCAU | -1.71 ± 0.29 | -1.79 ± 0.39 |
| GUACAGCAAUAUUACGAGGC | -3.95 ± 0.46 | -1.41 ± 0.18 |
| CUUUAGCAAUAUUACGCGGU | -2.14 ± 0.19 | -0.796 ± 0.22 |
| GACUAGCAAUAUUACGACCU | 0.114 ± 0.093 | -0.756 ± 0.095 |
| UUUAAGCAAUAUUACGGGUG | -1.2 ± 0.13 | -0.234 ± 0.12 |
| UACUAGCAAUAUUACGGUGG | -2.1 ± 0.09 | -1 ± 0.098 |
| AAUGAGCAAUAUUACGACGA | -2.44 ± 0.34 | -3.22 ± 0.47 |
| ACAUAGCAAUAUUACGCCAA | – | -2.32 ± 0.28 |
| AGAAAGCAAUAUUACGUCCG | -0.86 ± 0.096 | 0.226 ± 0.14 |
| CAGUAGCAAUAUUACGGACG | -0.216 ± 0.11 | 0.702 ± 0.16 |
| AGACAGCAAUAUUACGGGCG | -0.665 ± 0.1 | -0.459 ± 0.12 |
| CAUCAGCAAUAUUACGGCCG | -0.131 ± 0.093 | -0.0546 ± 0.14 |
| CUGAAGCAAUAUUACGCCUG | -0.0552 ± 0.12 | 0.982 ± 0.16 |

| Sequence | self-splicing fitness (ln) (30 °C) | self-splicing fitness (ln) (37 °C) |
| --- | --- | --- |
| CAGUAGCAAUAUUACGGAAC | – | -2.72 ± 0.43 |
| AAUGAGCAAUAUUACGUCAA | -2.4 ± 0.21 | -2.59 ± 0.46 |
| GAGUAGCAAUAUUACGACCA | -1.81 ± 0.12 | 0.176 ± 0.15 |
| AGAGAGCAAUAUUACGGAGU | -3.87 ± 0.4 | -3.3 ± 0.47 |
| GCCAAGCAAUAUUACGGGAU | -0.936 ± 0.075 | -0.693 ± 0.099 |
| GCUGAGCAAUAUUACGGUAA | -3.07 ± 0.29 | -2.44 ± 0.23 |
| GUCUAGCAAUAUUACGGUAA | -1.67 ± 0.11 | -0.172 ± 0.11 |
| CCCCAGCAAUAUUACGCUUG | -3.52 ± 0.17 | -3.06 ± 0.2 |
| CAUAAGCAAUAUUACGCGGU | -3.72 ± 0.24 | -2.34 ± 0.17 |
| AGCGAGCAAUAUUACGGGUA | -2.6 ± 0.21 | -0.993 ± 0.18 |
| CCACAGCAAUAUUACGCUCU | -4.07 ± 0.17 | -2.1 ± 0.16 |
| GACCAGCAAUAUUACGCCUA | -0.572 ± 0.11 | 0.226 ± 0.12 |
| UACCAGCAAUAUUACGGCCC | -1.19 ± 0.14 | -0.219 ± 0.26 |
| AUUUAGCAAUAUUACGCUCG | -0.131 ± 0.1 | 0.715 ± 0.15 |
| AUCAAGCAAUAUUACGGGUG | -1.4 ± 0.088 | -0.416 ± 0.087 |
| CGCCAGCAAUAUUACGUAUU | -3.2 ± 0.093 | -2.71 ± 0.15 |
| AGGCAGCAAUAUUACGCGUU | -2.29 ± 0.12 | -0.692 ± 0.11 |
| UCCAAGCAAUAUUACGGGAA | -1.07 ± 0.078 | -0.547 ± 0.079 |
| GCUUAGCAAUAUUACGAGAU | -1.36 ± 0.14 | -1.02 ± 0.12 |

Reference: the supplement of paper PMC7877785
